Measured values from US20140112926A1.

What was measured:
[1] = biological target: GST-tagged version of human FcγRIIIA (human) (UniProt P08637); test: AlphaLISA vs biotin-huIgG, supernatant, round 2
[2] = biological target: GST-tagged version of human FcγRIIIA (human) (UniProt P08637); test: AlphaLISA vs biotin-huIgG, supernatant, round 3
[3] = biological target: GST-tagged version of human FcγRIIIA (human) (UniProt P08637); test: AlphaLISA vs biotin-huIgG, supernatant, round 1

GST-tagged version of human FcγRIIIA (human), sequence (P08637 17-208 limits assumed): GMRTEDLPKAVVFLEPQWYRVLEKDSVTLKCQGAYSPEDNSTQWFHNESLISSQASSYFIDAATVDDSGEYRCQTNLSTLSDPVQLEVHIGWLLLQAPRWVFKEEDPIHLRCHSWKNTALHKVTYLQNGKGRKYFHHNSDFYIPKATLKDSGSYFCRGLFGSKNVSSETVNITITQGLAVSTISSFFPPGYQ

Substance	% inhibition [1] [%]	Alpha signal [1]	% inhibition [2] [%]	Alpha signal [2]	% inhibition [3] [%]	Alpha signal [3]
scFv-Fc/Fc, I253K in scFv-Fc (Fc fusion)	35.2	52100	34.7	51300	24.5	57400
scFv-Fc/Fc, S239E + K340N in dummy Fc (Fc fusion)	85.4	11800	66.7	26100	84.9	11500
scFv-Fc/Fc, A330M in scFv-Fc (Fc fusion)	36.6	51000	26.2	58000	27.1	55400
scFv-Fc/Fc, F243I in dummy Fc (Fc fusion)	–	25800	–	23800	60.8	29800
scFv-Fc/Fc, E258V in scFv-Fc (from UniProt P0DOX5 218-449; P0DOX5 218-449) (Fc fusion)	75.8	19500	71.5	22400	69.3	23300
scFv-Fc/Fc, Q311M in dummy Fc (Fc fusion)	86.2	11100	87.5	9800	82.7	13100
scFv-Fc/Fc, K290S in scFv-Fc (from UniProt P0DOX5 218-449; P0DOX5 218-449) (Fc fusion)	–	55900	–	54600	24.8	57100
scFv-Fc/Fc, K246S in dummy Fc (Fc fusion)	47.3	42400	51.8	37900	40.6	45100
scFv-Fc/Fc, R255N in dummy Fc (Fc fusion)	39.6	48500	43.3	44500	37.4	47500
scFv-Fc/Fc, K246W in dummy Fc (Fc fusion)	29	57100	34.2	51700	20	60800
scFv-Fc/Fc, A330V in dummy Fc (Fc fusion)	32.7	54100	25.6	58400	25.8	56400
scFv-Fc/Fc, A287F in scFv-Fc (from UniProt P0DOX5 218-449; P0DOX5 218-449) (Fc fusion)	58.4	33500	67.6	25500	47.5	39900
scFv-Fc/Fc, K288T in dummy Fc (Fc fusion)	–	53100	–	50300	26.7	55700
scFv-Fc/Fc, L309S in scFv-Fc (Fc fusion)	23.5	61500	19.1	63500	20.4	60500
scFv-Fc/Fc, K248Y in dummy Fc (Fc fusion)	36.5	51000	40.2	47000	31.5	52100
scFv-Fc/Fc, S239D in scFv-Fc (Fc fusion)	79	16900	–	21400	–	24300
scFv-Fc/Fc, N315A in scFv-Fc (Fc fusion)	–	19700	63.6	28600	68.7	23800
scFv-Fc/Fc, L309E in scFv-Fc (Fc fusion)	73.7	21100	67.6	–	67	–
scFv-Fc/Fc, F243V in dummy Fc (Fc fusion)	60.1	32100	62.8	29300	49	38800
scFv-Fc/Fc, S239E in dummy Fc (Fc fusion)	–	34800	–	33700	–	32500
scFv-Fc/Fc, F243L in scFv-Fc (Fc fusion)	28.6	57400	29.7	55200	39.4	–
scFv-Fc/Fc, S298C in scFv-Fc (Fc fusion)	87.1	10400	82.9	13400	84	12200
scFv-Fc/Fc, F243M in dummy Fc (Fc fusion)	53.1	37700	58.7	32400	43.3	43100

Substance	% inhibition [1] [%]	Alpha signal [1]	% inhibition [2] [%]	Alpha signal [2]	% inhibition [3] [%]	Alpha signal [3]
scFv-Fc/Fc, N315S in scFv-Fc (Fc fusion)	75.8	19500	63.4	28800	65.8	26000
scFv-Fc/Fc, S239D in dummy Fc (Fc fusion)	92.3	6160	87.4	9870	91.9	6120
scFv-Fc/Fc, T307S in scFv-Fc (Fc fusion)	42.1	–	34.6	51400	41.3	–
scFv-Fc/Fc, L309K in scFv-Fc (Fc fusion)	76.5	18900	65.4	27200	69.2	23400
scFv-Fc/Fc, K334L in dummy Fc (Fc fusion)	70.9	23400	68.1	25100	64.9	26700
scFv-Fc/Fc, K334V in dummy Fc (Fc fusion)	66.5	26900	61.6	30200	64.4	27100
scFv-Fc/Fc, K290Q in scFv-Fc (Fc fusion)	54.4	36700	48.8	40300	50.8	37400
scFv-Fc/Fc, T307G in scFv-Fc (Fc fusion)	–	–	51	–	–	32500
scFv-Fc/Fc, H268E in scFv-Fc (from UniProt P0DOX5 218-449; P0DOX5 218-449) (Fc fusion)	–	56600	–	57100	–	54800
scFv-Fc/Fc, L235S in scFv-Fc (Fc fusion)	92.2	6260	91.1	7020	89.8	7790
scFv-Fc/Fc, K290F in dummy Fc (Fc fusion)	31.1	55400	23.5	60100	23.1	58500
scFv-Fc/Fc, H268K in scFv-Fc (from UniProt P0DOX5 218-449; P0DOX5 218-449) (Fc fusion)	22.6	62200	21.6	61600	20.2	60600
scFv-Fc/Fc, K246E in dummy Fc (Fc fusion)	22.2	62600	32.1	53300	22.4	58900
scFv-Fc/Fc, S239N in scFv-Fc (Fc fusion)	67.5	26100	68.8	24500	58	31900
scFv-Fc/Fc, E258S in dummy Fc (Fc fusion)	28	57900	21.6	61600	20.6	60300
scFv-Fc/Fc, no substitution (charge pair mutations only) (Fc fusion)	0	80400	0	78600	0	76000
scFv-Fc/Fc, K290G in scFv-Fc (from UniProt P0DOX5 218-449; P0DOX5 218-449) (Fc fusion)	33.1	53800	–	55700	31.1	52400
scFv-Fc/Fc, K334M in scFv-Fc (Fc fusion)	75.4	19800	–	24400	–	22300
scFv-Fc/Fc, Y296W in scFv-Fc (Fc fusion)	72.9	21800	68.5	24800	66.7	25300
scFv-Fc/Fc, I332E in scFv-Fc (Fc fusion)	74.6	20400	76.5	18400	75.1	18900
scFv-Fc/Fc, K248L in dummy Fc (Fc fusion)	71.3	23100	68.4	24800	67.5	24700
scFv-Fc/Fc, K290W in scFv-Fc (Fc fusion)	34.6	52600	24.2	59500	29.1	53900
